Reference: patent publication US20260008818A1, “CYCLIC PEPTIDE OR SALT THEREOF, AND USES THEREOF” (FUJIFILM Corporation, priority 2023, published 2026)
Bridge positions count the residues as written; N and C are the ends. Square brackets hold non-standard residues; d marks the D form. Ends that are not written are not given here. hCys = N[C@@H](CCS)C(=O)O; Orn = NCCC[C@H](N)C(=O)O; Dab = NCC[C@H](N)C(=O)O; Dap = NC[C@H](N)C(=O)O

T1: Recombinant Human FGFR1 alpha (IIIc) Fc Chimera Protein, CF (R&D systems, 658-FR-050) (human, UniProt P11362 22-376)
T1 construct: bought reagent; not shown: Fc of the bought chimera
T1 sequence (looked up): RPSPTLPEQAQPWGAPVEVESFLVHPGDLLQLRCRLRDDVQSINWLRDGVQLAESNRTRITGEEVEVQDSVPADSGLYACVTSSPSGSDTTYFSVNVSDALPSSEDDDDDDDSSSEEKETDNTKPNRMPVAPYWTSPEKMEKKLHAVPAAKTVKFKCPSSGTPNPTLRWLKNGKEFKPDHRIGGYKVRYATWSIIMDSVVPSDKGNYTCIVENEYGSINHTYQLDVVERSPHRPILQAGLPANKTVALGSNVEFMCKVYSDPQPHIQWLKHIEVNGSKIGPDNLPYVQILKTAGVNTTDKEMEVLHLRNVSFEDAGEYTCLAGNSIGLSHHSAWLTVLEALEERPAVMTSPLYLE


system: not listed separately; experiment: Molecular stability of cyclic peptide after reducing agent (DTT) treatment, LC; assay type: physicochemical; details: residual rate after 12.6 mmol/L DTT aqueous solution, room temperature, 1 hour
Description: The molecular stability of the cyclic peptide was evaluated by analyzing an aqueous solution of the cyclic peptide treated with a reducing agent by liquid chromatography (LC).
The reducing agent treatment was performed under the following conditions based on the concentration of glutathione contained in the cells. 25 μL of a 0.2 mg/mL cyclic peptide aqueous solution was prepared, 58.8 μL of a 12.6 mmol/L DTT aqueous solution was added to the aqueous solution, and the mixture was incubated at room temperature for 1 hour to obtain an aqueous solution of the cyclic peptide treated with a reducing agent. The DTT aqueous solution was used by diluting a 1 mol/L (+-)-dithiothreitol (DTT) solution (FUJIFILM Wako Pure Chemical Corporation, 044-33871) with water. The total area of all the peaks in LC/MS of the cyclic peptide before the reducing agent treatment was set to 100%, and the proportion of the total area of all the peaks in LC/MS of the aqueous solution of the cyclic peptide treated with the reducing agent was determined to calculate the residual rate of the cyclic peptide, and the molecular stability was evaluated according to the following evaluation criteria. The evaluation result preferably satisfies the evaluation criteria A, B, or C.
• A: The residual rate of cyclic peptide is 90% or more. • B: The residual rate of the cyclic peptide is 70% or more and less than 90% • C: The residual rate of the cyclic peptide is 50% or more and less than 70% • D: The residual rate of the cyclic peptide is less than 50%
The LC used for the evaluation of molecular stability was set to the following conditions. • LC device: Prominence series (pump, column oven, autosampler, detector) (manufactured by Shimadzu Corporation) • Detector: photodiode array detector (SPD-M20A), measurement wavelength of 280 nm • Column: TSKgel ODS-100V, inner diameter of 4.6 mm×length of 150 mm, particle diameter of 5 μm (manufactured by Tosoh Corporation) • Eluent A: solution containing 0.1% trifluoroacetic acid as solute, and solvent is 100% water • Eluent B: solution containing 0.1% trifluoroacetic acid as solute, and solvent is 100% acetonitrile • Flow rate: 1.0 mL/min • Injection amount: 25 μL • Gradient: 20% to 50%: Eluent B (0 to 15 minutes), 100%: Eluent B (15 minutes) • Column temperature: 40° C.

| Molecule | Evaluation result of reductive stability |
| --- | --- |
| 374 (HXSYERLQFHGHEAPFRVKVKKK; not fully specified; Description of Artificial Sequence: Cyclic peptide) [compound 374] | A (The residual rate of cyclic peptide is 90% or more.) |
| 385 ([Orn]SYERLIFHGHEAPFWV[hCys]KKK; bridge 1-18; not fully specified (residue 1, bridges); printed as (Orn(acetyl))-SYERLIFHGHEAPFWV-(Hcy)-KKK) [compound 385] | A (The residual rate of cyclic peptide is 90% or more.) |
| 375 (HXSYERLQFHGHEAPFRVXVKKK; not fully specified; Description of Artificial Sequence: Cyclic peptide) [compound 375] | A (The residual rate of cyclic peptide is 90% or more.) |
| 380 (HXSYERLQFHGHEAPFRVXVKKK; not fully specified; Description of Artificial Sequence: Cyclic peptide) [compound 380] | A (The residual rate of cyclic peptide is 90% or more.) |
| 383 (HCSYERLQFHGHEAPFRVCVKKK; disulfide 2-19) [compound 383] | D (The residual rate of the cyclic peptide is less than 50%) |

system: Recombinant Human FGFR 1 alpha (IIIc) Fc Chimera Protein; experiment: Binding affinity of chemically synthesized cyclic peptide to immobilized FGFR by SPR; details: 10 nmol/L cyclic peptide, 25° C., binding amount per one molecule of FGFR, chemically synthesized product
Description: The binding affinity of the cyclic peptide to FGFR was evaluated using a surface plasmon resonance (SPR) method.
(§1) A CM5 sensor chip (Cytiva, 29149603) was set in Biacore-T200 (manufactured by Cytiva) which is a surface plasmon resonance device, and an HBS-EP buffer (Cytiva, BR100826) was added as a running buffer at a flow rate of 10 μL/min to equilibrate the flow channel. Next, 70 μL of a mixed aqueous solution of 0.2 mol/L 1-(3-dimethylaminopropyl)-3-ethylcarbodiimide (EDC) and 0.05 mol/L N-hydroxysuccinimide (NHS) was added to activate the sensor chip. Then, Recombinant Human FGFR 1 alpha (IIIc) Fc Chimera Protein CF (R&D systems, 658-FR-050) prepared at 50 nmol/L in an Acetate 4.5 buffer (Cytiva, BR100350) was added thereto to perform immobilization at about 5000 RU. Thereafter, the blocking treatment was performed with an ethanolamine solution. In addition, in another flow channel of the same sensor chip, blocking treatment was performed immediately after activation without immobilizing FGFR.
(§2) A cyclic peptide diluted to 10 nmol/L using HBS-EP was added to each flow channel of the FGFR-immobilized sensor chip produced above at 25° C. for 10 minutes, then HBS-EP was allowed to flow as a running buffer for 30 minutes, and the binding of the cyclic peptide to FGFR was measured. Thereafter, a regeneration treatment of removing the bound cyclic peptide was performed by repeating the flow of a regeneration liquid in which sodium chloride powder was dissolved in Glysine 1.5 (Cytiva, BR100354) to a final concentration of 0.15 mol/L for 1 minute in each flow channel twice. The binding amount of the cyclic peptide was evaluated from the difference between the measured value of Biacore-T200 in the flow channel in which FGFR was immobilized and the measured value of Biacore-T200 in the flow channel in which FGFR was not immobilated, in a case where a 10 nmol/L cyclic peptide was allowed to flow.
The binding amount of the cyclic peptide evaluated above was normalized to the binding amount of the cyclic peptide molecules per one molecule of FGFR using the molecular weights of the cyclic peptide and FGFR, and the binding affinity to FGFR was evaluated according to the following evaluation criteria. The evaluation result preferably satisfies the evaluation criteria A, B, or C.
• A: The binding amount is 0.7 molecules of the cyclic peptide/one molecule of FGFR or more. • B: The binding amount is 0.5 molecules of the cyclic peptide/one molecule of FGFR or more and less than 0.7 molecules of cyclic peptide/one molecule of FGFR. • C: The binding amount is 0.1 molecules of cyclic peptide/one molecule of FGFR or more and less than 0.5 molecules of cyclic peptide/one molecule of FGFR. • D: The binding amount is less than 0.1 molecules of the cyclic peptide/one molecule of FGFR.

| Molecule | Evaluation result of binding affinity to FGFR |
| --- | --- |
| 374 (HXSYERLQFHGHEAPFRVKVKKK; not fully specified; Description of Artificial Sequence: Cyclic peptide) [compound 374] | A (The binding amount is 0.7 molecules of the cyclic peptide/one molecule of FGFR or more.) |
| 385 ([Orn]SYERLIFHGHEAPFWV[hCys]KKK; bridge 1-18; not fully specified (residue 1, bridges); printed as (Orn(acetyl))-SYERLIFHGHEAPFWV-(Hcy)-KKK) [compound 385] | C (The binding amount is 0.1 molecules of cyclic peptide/one molecule of FGFR or more and less than 0.5 molecules of cyclic peptide/one molecule of FGFR.) |
| 375 (HXSYERLQFHGHEAPFRVXVKKK; not fully specified; Description of Artificial Sequence: Cyclic peptide) [compound 375] | A (The binding amount is 0.7 molecules of the cyclic peptide/one molecule of FGFR or more.) |
| 380 (HXSYERLQFHGHEAPFRVXVKKK; not fully specified; Description of Artificial Sequence: Cyclic peptide) [compound 380] | A (The binding amount is 0.7 molecules of the cyclic peptide/one molecule of FGFR or more.) |

molecular target: T1, Recombinant Human FGFR1 alpha (IIIc) Fc …; experiment: SPR, FGFR1-Fc immobilized, 10 nmol/L peptide; details: not given
Description: as §1, §2

| Molecule | binding amount (SPR, cyclic peptide molecules bound per one molecule of FGFR at 10 nmol/L peptide) |
| --- | --- |
| H[hCys]SYERLQFHGHEAPFRV[Dab]VKKK (bridge 2-19; not fully specified (residue 19, bridges); printed as H-(Hcy)-SYERLQFHGHEAPFRV-(Dab(acetyl))-VKKK, chemically synthesized) [SEQ ID NO: 376] | ≥ 0.7 moleculesofthecyclicpeptide/onemoleculeoffgfr |
| H[hCys]SYERLQFHGHEAPFRV[Dap]VKKK (bridge 2-19; not fully specified (residue 19, bridges); printed as H-(Hcy)-SYERLQFHGHEAPFRV-(Dap(acetyl))-VKKK, chemically synthesized) [SEQ ID NO: 377] | ≥ 0.7 moleculesofthecyclicpeptide/onemoleculeoffgfr |
| H[Dab]SYERLQFHGHEAPFRV[hCys]VKKK (bridge 2-19; not fully specified (residue 2, bridges); printed as H-(Dab(acetyl))-SYERLQFHGHEAPFRV-(Hcy)-VKKK, chemically synthesized) [SEQ ID NO: 380] | ≥ 0.7 moleculesofthecyclicpeptide/onemoleculeoffgfr |
| H[hCys]SYERLQFHGHEAPFRVKVKKK (bridge 2-19; not fully specified (residue 19, bridges); printed as H-(Hcy)-SYERLQFHGHEAPFRV-(K(acetyl))-VKKK, chemically synthesized) [SEQ ID NO: 374] | ≥ 0.7 moleculesofthecyclicpeptide/onemoleculeoffgfr |
| H[hCys]SYERLQFHGHEAPFRV[Orn]VKKK (bridge 2-19; not fully specified (residue 19, bridges); printed as H-(Hcy)-SYERLQFHGHEAPFRV-(Orn(acetyl))-VKKK, chemically synthesized) [SEQ ID NO: 375] | ≥ 0.7 moleculesofthecyclicpeptide/onemoleculeoffgfr |
| HKSYERLQFHGHEAPFRV[hCys]VKKK (bridge 2-19; not fully specified (residue 2, bridges); printed as H-(K(acetyl))-SYERLQFHGHEAPFRV-(Hcy)-VKKK, chemically synthesized) [SEQ ID NO: 378] | ≥ 0.7 moleculesofthecyclicpeptide/onemoleculeoffgfr |
| HXSYERLQFHGHEAPFRVXVKKK (not fully specified; Orn(acetyl); Hcy; thioether ring (Orn(acetyl))-(Hcy), chemically synthesized) [SEQ ID NO: 379] | ≥ 0.7 moleculesofthecyclicpeptide/onemoleculeoffgfr |

Other lines, results leading:

| binding amount (SPR, cyclic peptide molecules bound per one molecule of FGFR at 10 nmol/L peptide) | Molecule |
| --- | --- |
| 0.1 to 0.5 moleculesofthecyclicpeptide/onemoleculeoffgfr | XSYERLIFHGHEAPFWVXKKK (not fully specified; Orn(acetyl); Hcy; thioether ring (Orn(acetyl))-(Hcy), chemically synthesized) [SEQ ID NO: 385] |
| ≥ 0.7 moleculesofthecyclicpeptide/onemoleculeoffgfr | H[Dap]SYERLQFHGHEAPFRV[hCys]VKKK (bridge 2-19; not fully specified (residue 2, bridges); printed as H-(Dap(acetyl))-SYERLQFHGHEAPFRV-(Hcy)-VKKK, chemically synthesized) [SEQ ID NO: 381] |
| ≥ 0.7 moleculesofthecyclicpeptide/onemoleculeoffgfr | HXSYERLIFHGHEAPFWVXKKK (not fully specified; Orn(acetyl); Hcy; thioether ring (Orn(acetyl))-(Hcy), chemically synthesized) [SEQ ID NO: 389] |
| 0.1 to 0.5 moleculesofthecyclicpeptide/onemoleculeoffgfr | XSYERLIFHGHEAPFWVXVKKK (not fully specified; Orn(acetyl); Hcy; thioether ring (Orn(acetyl))-(Hcy), chemically synthesized) [SEQ ID NO: 390] |
| 0.5 to 0.7 moleculesofthecyclicpeptide/onemoleculeoffgfr | Ac-HASYERLIFHGHEAPFWVCVKKK (bridge N-19; not fully specified; printed as (Ac)-HASYERLIFHGHEAPFWV-(C)-VKKK, chemically synthesized) [SEQ ID NO: 386] |
| ≥ 0.7 moleculesofthecyclicpeptide/onemoleculeoffgfr | HXSYERXIFHGHEAPFWVXVKKK (not fully specified; Hle (homoleucine); Orn(acetyl); Hcy; thioether ring (Orn(acetyl))-(Hcy), chemically synthesized) [SEQ ID NO: 388] |
| ≥ 0.7 moleculesofthecyclicpeptide/onemoleculeoffgfr | HXSYERLIFHGHEAPFWVXVKKK (not fully specified; meL (N-methyl leucine); Orn(acetyl); Hcy; thioether ring (Orn(acetyl))-(Hcy), chemically synthesized) [SEQ ID NO: 387] |
| ≥ 0.7 moleculesofthecyclicpeptide/onemoleculeoffgfr | HXSYERLIFHGHEAPFWVXVKKK (not fully specified; Orn(acetyl); Hcy; thioether ring (Orn(acetyl))-(Hcy), chemically synthesized) [SEQ ID NO: 384] |
